Source: article PMC10570696, “DNA-translocation-independent role of INO80 remodeler in DNA damage repairs” (The Journal of Biological Chemistry, 2023)

What was measured:
INO80-C ΔN sub-complex = molecular target: T1, INO80-C ΔN sub-complex (Saccharomyces cerevisiae, UniProt P53115); experiment: NADH-coupled ATPase assay (pyruvate kinase / lactate dehydrogenase), absorbance at […] nm; assay type: biochemical; conditions: nucleosome-stimulated (0-320 nM 0N80 mononucleosomes, Xenopus laevis histones); 80 nM complex; 1 mM ATP (2 mM stated elsewhere in the source); 2 mM MgCl2, 50 mM NaCl, pH 8, 30 °C
T1 construct: ten-subunit sub-complex; Ino80 truncated (residues 470-1490, printed 'residue 470 from 1490') with C-terminal Twin-Strep tag; MultiBac baculovirus, High Five insect cells; with Actin-related protein 5; Chromatin-remodeling complex subunit IES6; Ino eighty subunit 2; RuvB-like protein 1; RuvB-like protein 2; Actin-related protein 4; Actin-like protein ARP8; Actin; Ino eighty subunit 4

[1] = molecular target: human APE1 endonuclease (AP-endonuclease 1) (human) (UniProt P27695)
Sequence of human APE1 endonuclease (AP-endonuclease 1) (human) (P27695 whole entry): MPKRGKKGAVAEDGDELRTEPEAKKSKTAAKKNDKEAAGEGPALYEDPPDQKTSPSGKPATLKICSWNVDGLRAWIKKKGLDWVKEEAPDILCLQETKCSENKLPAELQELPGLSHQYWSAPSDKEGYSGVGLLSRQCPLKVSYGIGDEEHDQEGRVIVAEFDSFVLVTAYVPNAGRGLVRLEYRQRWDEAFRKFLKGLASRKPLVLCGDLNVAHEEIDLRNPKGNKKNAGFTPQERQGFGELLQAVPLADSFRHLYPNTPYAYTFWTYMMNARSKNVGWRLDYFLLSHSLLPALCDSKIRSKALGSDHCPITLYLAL

[2] = molecular target: human APE1 endonuclease (AP-endonuclease 1) (human) (UniProt P27695); remark: listed apart in the source

Row | Compound | NADH-coupled ATPase assay (pyruvate kinase / lactate dehydrogenase), absorbance (INO80-C ΔN sub-complex) | APE1 incision assay: percent of dTHF(SHL-6) nucleosomes (100 nM) cleaved over 30 min by 5 nM APE1 with 25 nM INO80-C, with ATP (approximately 40% with APE1 alone) [1] | APE1 incision assay after pre-treatment of the APE1-INO80-C mixture at 37 °C for 20 min, with ATP: proportion of incised nucleosomes [2]
1 | Nc1ncnc2c1ncn2[C@@H]1O[C@H](COP(=O)(O)OP(=O)(O)OP(=O)(O)O)[C@@H](O)[C@H]1O [ATP] | conducted measurements of nucleosome-stimulated ATPase activity of INO80-C ΔN through a NADH+-coupled assay | – | –
2 | endogenous yeast INO80-C complex (from UniProt P53115 1-1489; P53946 1-755; P32617 1-166; P40154 1-320; Q03940 1-463; Q12464 1-471; P80428 1-489; Q12386 1-881; P60010 1-375; Q08561 1-116; P35189 1-244; Q03435 1-203; P43579 1-692; Q12345 1-250; P40060 1-125) | – | 56% | 70%
